*1 amine or outer side, *2 acyl side, *3 side chain or, on linkers, in order; H or OH if unused. Where no end group is shown, it is not given here. Side-chain parts run from the residue outwards. [ ]: non-standard residue; d: D form. The star is where a group is joined. γGlu = O=C(O)[C@H](CCC(=O)[*:2])N[*:1]; Palmitoyl = CCCCCCCCCCCCCCCC(=O)*; Aib = CC(C)(N)C(=O)O
B1: exendin-4 peptide analogue SEQ ID NO: 45 (peptide)
peptide: Y[Aib]QGTFTSDLSIQK([γGlu-Palmitoyl])EKRAAQLFIEWLKNGGPSSGAPPPS-NH2
modifications: N-terminus assumed
SMILES: CCCCCCCCCCCCCCCC(=O)N[C@@H](CCC(=O)NCCCC[C@H](NC(=O)[C@H](CCC(N)=O)NC(=O)[C@@H](NC(=O)[C@H](CO)NC(=O)[C@H](CC(C)C)NC(=O)[C@H](CC(=O)O)NC(=O)[C@H](CO)NC(=O)[C@@H](NC(=O)[C@H](Cc1ccccc1)NC(=O)[C@@H](NC(=O)CNC(=O)[C@H](CCC(N)=O)NC(=O)C(C)(C)NC(=O)[C@@H](N)Cc1ccc(O)cc1)[C@@H](C)O)[C@@H](C)O)[C@@H](C)CC)C(=O)N[C@@H](CCC(=O)O)C(=O)N[C@@H](CCCCN)C(=O)N[C@@H](CCCNC(=N)N)C(=O)N[C@@H](C)C(=O)N[C@@H](C)C(=O)N[C@@H](CCC(N)=O)C(=O)N[C@@H](CC(C)C)C(=O)N[C@@H](Cc1ccccc1)C(=O)N[C@H](C(=O)N[C@@H](CCC(=O)O)C(=O)N[C@@H](Cc1c[nH]c2ccccc12)C(=O)N[C@@H](CC(C)C)C(=O)N[C@@H](CCCCN)C(=O)N[C@@H](CC(N)=O)C(=O)NCC(=O)NCC(=O)N1CCC[C@H]1C(=O)N[C@@H](CO)C(=O)N[C@@H](CO)C(=O)NCC(=O)N[C@@H](C)C(=O)N1CCC[C@H]1C(=O)N1CCC[C@H]1C(=O)N1CCC[C@H]1C(=O)N[C@@H](CO)C(N)=O)[C@@H](C)CC)C(=O)O
B2: exendin-4 peptide analogue SEQ ID NO: 48 (peptide)
peptide: Y[Aib]QGTFTSDLSIQK([γGlu-Palmitoyl])DSEAAQDFIEWLKAGGPSSGAPPPS-NH2
modifications: N-terminus assumed
SMILES: CCCCCCCCCCCCCCCC(=O)N[C@@H](CCC(=O)NCCCC[C@H](NC(=O)[C@H](CCC(N)=O)NC(=O)[C@@H](NC(=O)[C@H](CO)NC(=O)[C@H](CC(C)C)NC(=O)[C@H](CC(=O)O)NC(=O)[C@H](CO)NC(=O)[C@@H](NC(=O)[C@H](Cc1ccccc1)NC(=O)[C@@H](NC(=O)CNC(=O)[C@H](CCC(N)=O)NC(=O)C(C)(C)NC(=O)[C@@H](N)Cc1ccc(O)cc1)[C@@H](C)O)[C@@H](C)O)[C@@H](C)CC)C(=O)N[C@@H](CC(=O)O)C(=O)N[C@@H](CO)C(=O)N[C@@H](CCC(=O)O)C(=O)N[C@@H](C)C(=O)N[C@@H](C)C(=O)N[C@@H](CCC(N)=O)C(=O)N[C@@H](CC(=O)O)C(=O)N[C@@H](Cc1ccccc1)C(=O)N[C@H](C(=O)N[C@@H](CCC(=O)O)C(=O)N[C@@H](Cc1c[nH]c2ccccc12)C(=O)N[C@@H](CC(C)C)C(=O)N[C@@H](CCCCN)C(=O)N[C@@H](C)C(=O)NCC(=O)NCC(=O)N1CCC[C@H]1C(=O)N[C@@H](CO)C(=O)N[C@@H](CO)C(=O)NCC(=O)N[C@@H](C)C(=O)N1CCC[C@H]1C(=O)N1CCC[C@H]1C(=O)N1CCC[C@H]1C(=O)N[C@@H](CO)C(N)=O)[C@@H](C)CC)C(=O)O
B3: exendin-4 peptide analogue SEQ ID NO: 47 (peptide)
peptide: Y[Aib]QGTFTSDLSIQK([γGlu-Palmitoyl])DKRAVQLFIEWLKNGGPSSGAPPPS-NH2
modifications: N-terminus assumed
SMILES: CCCCCCCCCCCCCCCC(=O)N[C@@H](CCC(=O)NCCCC[C@H](NC(=O)[C@H](CCC(N)=O)NC(=O)[C@@H](NC(=O)[C@H](CO)NC(=O)[C@H](CC(C)C)NC(=O)[C@H](CC(=O)O)NC(=O)[C@H](CO)NC(=O)[C@@H](NC(=O)[C@H](Cc1ccccc1)NC(=O)[C@@H](NC(=O)CNC(=O)[C@H](CCC(N)=O)NC(=O)C(C)(C)NC(=O)[C@@H](N)Cc1ccc(O)cc1)[C@@H](C)O)[C@@H](C)O)[C@@H](C)CC)C(=O)N[C@@H](CC(=O)O)C(=O)N[C@@H](CCCCN)C(=O)N[C@@H](CCCNC(=N)N)C(=O)N[C@@H](C)C(=O)N[C@H](C(=O)N[C@@H](CCC(N)=O)C(=O)N[C@@H](CC(C)C)C(=O)N[C@@H](Cc1ccccc1)C(=O)N[C@H](C(=O)N[C@@H](CCC(=O)O)C(=O)N[C@@H](Cc1c[nH]c2ccccc12)C(=O)N[C@@H](CC(C)C)C(=O)N[C@@H](CCCCN)C(=O)N[C@@H](CC(N)=O)C(=O)NCC(=O)NCC(=O)N1CCC[C@H]1C(=O)N[C@@H](CO)C(=O)N[C@@H](CO)C(=O)NCC(=O)N[C@@H](C)C(=O)N1CCC[C@H]1C(=O)N1CCC[C@H]1C(=O)N1CCC[C@H]1C(=O)N[C@@H](CO)C(N)=O)[C@@H](C)CC)C(C)C)C(=O)O
B4: exendin-4 peptide analogue SEQ ID NO: 49 (peptide)
peptide: Y[Aib]QGTFTSDLSIQK([γGlu-Palmitoyl])DSIAAQDFIEWLKAGGPSSGAPPPS-NH2
modifications: N-terminus assumed
SMILES: CCCCCCCCCCCCCCCC(=O)N[C@@H](CCC(=O)NCCCC[C@H](NC(=O)[C@H](CCC(N)=O)NC(=O)[C@@H](NC(=O)[C@H](CO)NC(=O)[C@H](CC(C)C)NC(=O)[C@H](CC(=O)O)NC(=O)[C@H](CO)NC(=O)[C@@H](NC(=O)[C@H](Cc1ccccc1)NC(=O)[C@@H](NC(=O)CNC(=O)[C@H](CCC(N)=O)NC(=O)C(C)(C)NC(=O)[C@@H](N)Cc1ccc(O)cc1)[C@@H](C)O)[C@@H](C)O)[C@@H](C)CC)C(=O)N[C@@H](CC(=O)O)C(=O)N[C@@H](CO)C(=O)N[C@H](C(=O)N[C@@H](C)C(=O)N[C@@H](C)C(=O)N[C@@H](CCC(N)=O)C(=O)N[C@@H](CC(=O)O)C(=O)N[C@@H](Cc1ccccc1)C(=O)N[C@H](C(=O)N[C@@H](CCC(=O)O)C(=O)N[C@@H](Cc1c[nH]c2ccccc12)C(=O)N[C@@H](CC(C)C)C(=O)N[C@@H](CCCCN)C(=O)N[C@@H](C)C(=O)NCC(=O)NCC(=O)N1CCC[C@H]1C(=O)N[C@@H](CO)C(=O)N[C@@H](CO)C(=O)NCC(=O)N[C@@H](C)C(=O)N1CCC[C@H]1C(=O)N1CCC[C@H]1C(=O)N1CCC[C@H]1C(=O)N[C@@H](CO)C(N)=O)[C@@H](C)CC)[C@@H](C)CC)C(=O)O
B5: exendin-4 peptide analogue SEQ ID NO: 46 (peptide)
peptide: Y[Aib]QGTFTSDLSIQK([γGlu-Palmitoyl])EKRAVQLFIEWLKNGGPSSGAPPPS-NH2
modifications: N-terminus assumed
SMILES: CCCCCCCCCCCCCCCC(=O)N[C@@H](CCC(=O)NCCCC[C@H](NC(=O)[C@H](CCC(N)=O)NC(=O)[C@@H](NC(=O)[C@H](CO)NC(=O)[C@H](CC(C)C)NC(=O)[C@H](CC(=O)O)NC(=O)[C@H](CO)NC(=O)[C@@H](NC(=O)[C@H](Cc1ccccc1)NC(=O)[C@@H](NC(=O)CNC(=O)[C@H](CCC(N)=O)NC(=O)C(C)(C)NC(=O)[C@@H](N)Cc1ccc(O)cc1)[C@@H](C)O)[C@@H](C)O)[C@@H](C)CC)C(=O)N[C@@H](CCC(=O)O)C(=O)N[C@@H](CCCCN)C(=O)N[C@@H](CCCNC(=N)N)C(=O)N[C@@H](C)C(=O)N[C@H](C(=O)N[C@@H](CCC(N)=O)C(=O)N[C@@H](CC(C)C)C(=O)N[C@@H](Cc1ccccc1)C(=O)N[C@H](C(=O)N[C@@H](CCC(=O)O)C(=O)N[C@@H](Cc1c[nH]c2ccccc12)C(=O)N[C@@H](CC(C)C)C(=O)N[C@@H](CCCCN)C(=O)N[C@@H](CC(N)=O)C(=O)NCC(=O)NCC(=O)N1CCC[C@H]1C(=O)N[C@@H](CO)C(=O)N[C@@H](CO)C(=O)NCC(=O)N[C@@H](C)C(=O)N1CCC[C@H]1C(=O)N1CCC[C@H]1C(=O)N1CCC[C@H]1C(=O)N[C@@H](CO)C(N)=O)[C@@H](C)CC)C(C)C)C(=O)O

target: human GLP-1 receptor (human, UniProt P43220 24-463); assay: cell-based or functional assay

| Binder | EC50 hGLP-1 R |
| --- | --- |
| B1 | 0.0114 nM |
| B2 | 0.0101 nM |
| B3 | 0.0156 nM |
| B4 | 0.0172 nM |
| B5 | 0.0235 nM |

target: human glucagon receptor (human, UniProt P47871 26-477); assay: cell-based or functional assay
Sequence (P47871 26-477): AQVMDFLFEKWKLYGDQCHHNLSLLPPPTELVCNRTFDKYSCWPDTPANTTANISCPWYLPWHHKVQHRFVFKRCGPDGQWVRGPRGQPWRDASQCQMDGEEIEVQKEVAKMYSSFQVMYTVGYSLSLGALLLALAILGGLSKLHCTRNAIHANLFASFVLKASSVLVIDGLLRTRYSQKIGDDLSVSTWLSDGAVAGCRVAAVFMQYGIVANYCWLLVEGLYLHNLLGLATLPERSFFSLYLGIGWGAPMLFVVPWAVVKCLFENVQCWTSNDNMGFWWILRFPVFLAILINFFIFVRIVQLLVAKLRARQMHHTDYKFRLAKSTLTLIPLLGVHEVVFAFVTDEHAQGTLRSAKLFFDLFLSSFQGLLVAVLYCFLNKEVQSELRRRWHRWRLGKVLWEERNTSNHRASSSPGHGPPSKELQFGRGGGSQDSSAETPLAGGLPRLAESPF

| Binder | EC50 hGLUC R |
| --- | --- |
| B1 | 0.0797 nM |
| B2 | 0.478 nM |
| B3 | 2.39 nM |
| B4 | 0.195 nM |
| B5 | 0.53 nM |

target: T1, human GIP receptor (human, UniProt P48546 22-466); assay: cell-based or functional assay
T1 sequence (looked up): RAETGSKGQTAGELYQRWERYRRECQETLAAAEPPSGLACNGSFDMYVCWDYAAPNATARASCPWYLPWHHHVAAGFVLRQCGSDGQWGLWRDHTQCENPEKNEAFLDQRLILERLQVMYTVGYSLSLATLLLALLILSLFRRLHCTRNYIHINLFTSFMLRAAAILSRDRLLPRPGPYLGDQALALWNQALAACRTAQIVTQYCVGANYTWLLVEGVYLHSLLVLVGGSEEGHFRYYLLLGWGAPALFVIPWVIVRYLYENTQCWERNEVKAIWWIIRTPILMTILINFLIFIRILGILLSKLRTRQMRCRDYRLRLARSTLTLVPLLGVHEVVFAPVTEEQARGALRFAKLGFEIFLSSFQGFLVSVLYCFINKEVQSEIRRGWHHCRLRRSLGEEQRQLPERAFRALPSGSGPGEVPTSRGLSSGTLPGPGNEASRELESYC

| Binder | EC50 hGIP R |
| --- | --- |
| B1 | 0.0234 nM |
| B2 | 0.0158 nM |
| B3 | 0.0442 nM |
| B4 | 0.0456 nM |
| B5 | 0.0202 nM |
